Measured values published in patent US20060018902A1 (published 2006).

T1: soluble EpoR (EposR) (human, UniProt P19235 25-250)
T1 chain: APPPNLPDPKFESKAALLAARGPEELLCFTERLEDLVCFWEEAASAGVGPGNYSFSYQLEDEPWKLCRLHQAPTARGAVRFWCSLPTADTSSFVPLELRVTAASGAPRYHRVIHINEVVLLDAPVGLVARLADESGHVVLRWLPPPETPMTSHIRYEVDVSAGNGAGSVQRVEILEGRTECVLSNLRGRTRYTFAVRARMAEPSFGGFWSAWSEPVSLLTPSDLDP

T2: human erythropoietin receptor (EpoR) on human erythroleukemic cells (human, UniProt P19235 25-508)
T2 sequence (looked up): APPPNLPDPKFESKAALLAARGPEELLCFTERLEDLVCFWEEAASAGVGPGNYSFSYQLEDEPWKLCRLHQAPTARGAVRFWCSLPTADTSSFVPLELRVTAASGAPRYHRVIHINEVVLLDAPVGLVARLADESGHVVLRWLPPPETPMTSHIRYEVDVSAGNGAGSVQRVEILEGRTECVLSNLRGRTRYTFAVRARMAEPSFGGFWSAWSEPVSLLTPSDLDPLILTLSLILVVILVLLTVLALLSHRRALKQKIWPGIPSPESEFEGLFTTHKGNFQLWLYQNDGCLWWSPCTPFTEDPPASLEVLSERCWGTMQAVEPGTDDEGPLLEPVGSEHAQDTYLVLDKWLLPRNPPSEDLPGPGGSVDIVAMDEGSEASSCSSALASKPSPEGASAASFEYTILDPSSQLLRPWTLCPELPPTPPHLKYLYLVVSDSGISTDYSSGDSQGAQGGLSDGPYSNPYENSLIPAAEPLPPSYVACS

T3: soluble EpoR (EposR) (human, UniProt P19235 25-250, limits assumed)
T3 construct: also called soluble recombinant human EpoR
T3 sequence (looked up): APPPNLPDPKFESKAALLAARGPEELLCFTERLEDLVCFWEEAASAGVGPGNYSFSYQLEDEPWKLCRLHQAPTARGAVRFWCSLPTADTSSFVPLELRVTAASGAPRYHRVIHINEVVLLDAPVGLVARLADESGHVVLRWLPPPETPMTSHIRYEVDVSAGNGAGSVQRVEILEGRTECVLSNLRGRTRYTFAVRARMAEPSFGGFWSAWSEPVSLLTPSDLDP


Experiments:
[1] = biological target: T1, soluble EpoR (EposR); assay: yeast display flow cytometry
[2] = biological target: T2, human erythropoietin receptor (EpoR) on …; assay: cell-based or functional assay
[3] = biological target: T3, soluble EpoR (EposR); assay: SPR (BIAcore), IgG2/K antibody, EposR as test antigen
Experimental: (§1) BIAcore analyses were performed on a BIAcore 2000 utilizing the BIAcontrol software version 3.1.0 and on a BIAcore 3000 utilizing the BIAcontrol software version 4.0.1. (BIAcore, Uppsala, Sweden) using EposR as the test antigen.

[4] = biological target: T3, soluble EpoR (EposR); assay: SPR (BIAcore), IgG2/K sub-variant of Ab12.6, EposR as test antigen
Experimental: as §1
Sub-variants also were subjected to BIAcore analyses as described above.

| Binder | Kd [1] [nM] | EC50 (cell proliferation) [2] [nM] | Emax (cell proliferation, absorbance) [2] | Kd [3] [nM] | koff [3] [s⁻¹] | kon [3] [M⁻¹ s⁻¹] | Kd [4] [nM] | koff [4] [s⁻¹] | kon [4] [M⁻¹ s⁻¹] |
| --- | --- | --- | --- | --- | --- | --- | --- | --- | --- |
| Ab12 scFv construct with linker 41 in the tether position and the Gly/Ser linker (WT) in the scFv linker position, displayed on yeast (scFv) scFv: GENKVEYAPALMALSQVQLQESGPGLVKPSETLSLTCTVSGASISSYYWSWIRQPPGKGLEWIGYIYYSGSTNYNPSLKSRVTISVDTSKNQFSLKLRSVTAADTAVYYCARERLGIGDYWGQGTLVTVSSGGGGSGGGGSGGGGSDIQLTQSPSSLSASVGDRVTITCRASQGIRNDLGWYQQKPGKAPKRLIYAASSLQSGVPSRFSGSGSGTEFTLTISSLQPEDFATYYCLQHNTYPPTFGQGTKVEIK | 5 | – | – | – | – | – | – | – | – |
| Ab12 scFv construct with linker 41 in the tether position and linker 34 in the scFv linker position, displayed on yeast (scFv) scFv: GENKVEYAPALMALSQVQLQESGPGLVKPSETLSLTCTVSGASISSYYWSWIRQPPGKGLEWIGYIYYSGSTNYNPSLKSRVTISVDTSKNQFSLKLRSVTAADTAVYYCARERLGIGDYWGQGTLVTVSSGHEAAAVMQVQYPASDIQLTQSPSSLSASVGDRVTITCRASQGIRNDLGWYQQKPGKAPKRLIYAASSLQSGVPSRFSGSGSGTEFTLTISSLQPEDFATYYCLQHNTYPPTFGQGTKVEIK | 8.5 | – | – | – | – | – | – | – | – |
| Ab12 41/40 scFv (linker 41 as tether, linker 40 as scFv linker), displayed on yeast (scFv) scFv: GENKVEYAPALMALSQVQLQESGPGLVKPSETLSLTCTVSGASISSYYWSWIRQPPGKGLEWIGYIYYSGSTNYNPSLKSRVTISVDTSKNQFSLKLRSVTAADTAVYYCARERLGIGDYWGQGTLVTVSSGPAKELTPLKEAKVSDIQLTQSPSSLSASVGDRVTITCRASQGIRNDLGWYQQKPGKAPKRLIYAASSLQSGVPSRFSGSGSGTEFTLTISSLQPEDFATYYCLQHNTYPPTFGQGTKVEIK | 4 | – | – | – | – | – | – | – | – |
| Ab12 scFv construct with Gly/Ser linker (WT) in both the tether and scFv linker positions, displayed on yeast (scFv) scFv: GGGGSGGGGSGGGGSQVQLQESGPGLVKPSETLSLTCTVSGASISSYYWSWIRQPPGKGLEWIGYIYYSGSTNYNPSLKSRVTISVDTSKNQFSLKLRSVTAADTAVYYCARERLGIGDYWGQGTLVTVSSGGGGSGGGGSGGGGSDIQLTQSPSSLSASVGDRVTITCRASQGIRNDLGWYQQKPGKAPKRLIYAASSLQSGVPSRFSGSGSGTEFTLTISSLQPEDFATYYCLQHNTYPPTFGQGTKVEIK | 9 | – | – | – | – | – | – | – | – |
| Ab12 IgG2/K (antibody, V domains shown, Human IgG2/kappa) VH: QVQLQESGPGLVKPSETLSLTCTVSGASISSYYWSWIRQPPGKGLEWIGYIYYSGSTNYNPSLKSRVTISVDTSKNQFSLKLRSVTAADTAVYYCARERLGIGDYWGQGTLVTVSS VL: DIQLTQSPSSLSASVGDRVTITCRASQGIRNDLGWYQQKPGKAPKRLIYAASSLQSGVPSRFSGSGSGTEFTLTISSLQPEDFATYYCLQHNTYPPTFGQGTKVEIK | – | 1.29 | 1.98 absorbance (OD 490 nm) | 11 | 0.0013 | 140000 | – | – | – |
| Ab12.121 (antibody, IgG2, V domains shown) VH: QVQLQESGPGLVKPSETLSLTCTVSGASISSYYWSWIRQPPGKGLEWIGYIGGSGSTNYNPSLKSRVTISVDTSKNQFSLKLRSVTAADTAVYYCARERLGIGDYWGQGTLVTVSS VL: DIQLTQSPSSLSASVGDRVTITCRASQGIRNDLGWYQQKPGKAPKRLIYAASSLQSGVPSRFSGSGSGTEFTLTISSLQPEDFATYYCLQHNTYPPTFGQGTKVEIK | – | 0.465 | 2.3 absorbance (OD 490 nm) | – | – | – | 31 | 0.0063 | 210000 |
| Ab12.6 (antibody, V domains shown, CDRH2 Y Y S is changed to G G E against Ab12; also called H2-1-3 R2 #6) VH: QVQLQESGPGLVKPSETLSLTCTVSGASISSYYWSWIRQPPGKGLEWIGYIGGEGSTNYNPSLKSRVTISVDTSKNQFSLKLRSVTAADTAVYYCARERLGIGDYWGQGTLVTVSS VL: DIQLTQSPSSLSASVGDRVTITCRASQGIRNDLGWYQQKPGKAPKRLIYAASSLQSGVPSRFSGSGSGTEFTLTISSLQPEDFATYYCLQHNTYPPTFGQGTKVEIK | – | 0.58 | 2.81 absorbance (OD 490 nm) | 32 | 0.0048 | 150000 | – | – | – |
| Ab12.123 (antibody, IgG2, V domains shown) VH: QVQLQESGPGLVKPSETLSLTCTVSGASISSYYWSWIRQPPGKGLEWIGYIGYEGSTNYNPSLKSRVTISVDTSKNQFSLKLRSVTAADTAVYYCARERLGIGDYWGQGTLVTVSS VL: DIQLTQSPSSLSASVGDRVTITCRASQGIRNDLGWYQQKPGKAPKRLIYAASSLQSGVPSRFSGSGSGTEFTLTISSLQPEDFATYYCLQHNTYPPTFGQGTKVEIK | – | 0.91 | 2.7 absorbance (OD 490 nm) | – | – | – | 25 | 0.0033 | 130000 |
| Ab12.122 (antibody, IgG2, V domains shown) VH: QVQLQESGPGLVKPSETLSLTCTVSGASISSYYWSWIRQPPGKGLEWIGYIYGEGSTNYNPSLKSRVTISVDTSKNQFSLKLRSVTAADTAVYYCARERLGIGDYWGQGTLVTVSS VL: DIQLTQSPSSLSASVGDRVTITCRASQGIRNDLGWYQQKPGKAPKRLIYAASSLQSGVPSRFSGSGSGTEFTLTISSLQPEDFATYYCLQHNTYPPTFGQGTKVEIK | – | 0.42 | 2.4 absorbance (OD 490 nm) | – | – | – | 23 | 0.0049 | 220000 |
| Ab12.70 (antibody, V domains shown, also called H2-4-1 R2 #8,9) VH: QVQLQESGPGLVKPSETLSLTCTVSGASISSYYWSWIRQPPGKGLEWIGYIYSPSSTNYNPSLKSRVTISVDTSKNQFSLKLRSVTAADTAVYYCARERLGIGDYWGQGTLVTVSS VL: DIQLTQSPSSLSASVGDRVTITCRASQGIRNDLGWYQQKPGKAPKRLIYAASSLQSGVPSRFSGSGSGTEFTLTISSLQPEDFATYYCLQHNTYPPTFGQGTKVEIK | – | – | – | 6 | 0.00099 | 160000 | – | – | – |
| Ab12.118 (antibody, IgG2, V domains shown) VH: QVQLQESGPGLVKPSETLSLTCTVSGASISSYYWSWIRQPPGKGLEWIGYIGYSGSTNYNPSLKSRVTISVDTSKNQFSLKLRSVTAADTAVYYCARERLGIGDYWGQGTLVTVSS VL: DIQLTQSPSSLSASVGDRVTITCRASQGIRNDLGWYQQKPGKAPKRLIYAASSLQSGVPSRFSGSGSGTEFTLTISSLQPEDFATYYCLQHNTYPPTFGQGTKVEIK | – | 1.13 | 2.65 absorbance (OD 490 nm) | – | – | – | 22 | 0.0055 | 250000 |
| Ab12.120 (antibody, IgG2, V domains shown) VH: QVQLQESGPGLVKPSETLSLTCTVSGASISSYYWSWIRQPPGKGLEWIGYIYYEGSTNYNPSLKSRVTISVDTSKNQFSLKLRSVTAADTAVYYCARERLGIGDYWGQGTLVTVSS VL: DIQLTQSPSSLSASVGDRVTITCRASQGIRNDLGWYQQKPGKAPKRLIYAASSLQSGVPSRFSGSGSGTEFTLTISSLQPEDFATYYCLQHNTYPPTFGQGTKVEIK | – | 0.34 | 2 absorbance (OD 490 nm) | – | – | – | 7 | 0.002 | 270000 |
| Ab12.56 (antibody, V domains shown, CDRH2 Y Y S is changed to A G T against Ab12) VH: QVQLQESGPGLVKPSETLSLTCTVSGASISSYYWSWIRQPPGKGLEWIGYIAGTGSTNYNPSLKSRVTISVDTSKNQFSLKLRSVTAADTAVYYCARERLGIGDYWGQGTLVTVSS VL: DIQLTQSPSSLSASVGDRVTITCRASQGIRNDLGWYQQKPGKAPKRLIYAASSLQSGVPSRFSGSGSGTEFTLTISSLQPEDFATYYCLQHNTYPPTFGQGTKVEIK | – | 1.17 | 2.51 absorbance (OD 490 nm) | 20 | 0.0019 | 94000 | – | – | – |
| Ab12.119 (antibody, IgG2, V domains shown) VH: QVQLQESGPGLVKPSETLSLTCTVSGASISSYYWSWIRQPPGKGLEWIGYIYGSGSTNYNPSLKSRVTISVDTSKNQFSLKLRSVTAADTAVYYCARERLGIGDYWGQGTLVTVSS VL: DIQLTQSPSSLSASVGDRVTITCRASQGIRNDLGWYQQKPGKAPKRLIYAASSLQSGVPSRFSGSGSGTEFTLTISSLQPEDFATYYCLQHNTYPPTFGQGTKVEIK | – | 1.34 | 2.53 absorbance (OD 490 nm) | – | – | – | 21 | 0.0044 | 210000 |
